Read-outs that look alike come from different tables or passages of the source. Blank lines part the entries; values can stand above or below the binder they belong to.
What was measured:
PKC-ζ (purified isoform) = biological target: T1, PKC-ζ (purified isoform) (Homo sapiens (Human), UniProt Q05513 1-592); test: competitive binding assay on purified isoforms: PRE 4 at 20X against the fluorescent anti-PKC-zeta antibody
T1 construct: also called PKC-zeta; PKCzeta
T1 sequence: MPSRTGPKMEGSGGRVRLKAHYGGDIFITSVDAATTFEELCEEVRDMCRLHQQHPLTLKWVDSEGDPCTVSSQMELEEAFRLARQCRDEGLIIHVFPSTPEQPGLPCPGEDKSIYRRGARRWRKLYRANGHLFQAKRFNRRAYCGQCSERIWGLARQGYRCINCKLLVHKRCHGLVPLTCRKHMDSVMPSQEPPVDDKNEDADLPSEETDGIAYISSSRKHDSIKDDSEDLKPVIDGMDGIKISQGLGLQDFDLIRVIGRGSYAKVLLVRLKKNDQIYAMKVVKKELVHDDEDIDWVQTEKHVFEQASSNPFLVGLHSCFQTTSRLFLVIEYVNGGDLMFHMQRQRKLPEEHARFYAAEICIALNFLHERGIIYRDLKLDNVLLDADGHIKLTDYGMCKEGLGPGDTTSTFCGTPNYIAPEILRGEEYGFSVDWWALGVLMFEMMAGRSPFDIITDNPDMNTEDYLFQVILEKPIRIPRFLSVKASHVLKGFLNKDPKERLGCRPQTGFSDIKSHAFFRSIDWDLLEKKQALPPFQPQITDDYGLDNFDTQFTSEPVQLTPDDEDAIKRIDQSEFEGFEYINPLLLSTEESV

[1] = biological target: T2, PKC-ζ (endogenous, human cell extracts) (human, UniProt Q05513 1-592); test: Western-blot competition on cell extracts against the anti-PKC-ζ primary antibody; band densitometry
T2 construct: also called PKC-zeta
T2 sequence (looked up): T1 sequence

[2] = biological target: T3, PKC-ε (endogenous, human cell extracts) (human, UniProt Q02156 1-737); test: Western-blot competition on cell extracts against the anti-PKC-ε primary antibody; band densitometry
T3 construct: Two bands on the blot, said to be alternate splicing variants; also called PKC-epsilon; PKC-ε Band 1
T3 sequence (looked up): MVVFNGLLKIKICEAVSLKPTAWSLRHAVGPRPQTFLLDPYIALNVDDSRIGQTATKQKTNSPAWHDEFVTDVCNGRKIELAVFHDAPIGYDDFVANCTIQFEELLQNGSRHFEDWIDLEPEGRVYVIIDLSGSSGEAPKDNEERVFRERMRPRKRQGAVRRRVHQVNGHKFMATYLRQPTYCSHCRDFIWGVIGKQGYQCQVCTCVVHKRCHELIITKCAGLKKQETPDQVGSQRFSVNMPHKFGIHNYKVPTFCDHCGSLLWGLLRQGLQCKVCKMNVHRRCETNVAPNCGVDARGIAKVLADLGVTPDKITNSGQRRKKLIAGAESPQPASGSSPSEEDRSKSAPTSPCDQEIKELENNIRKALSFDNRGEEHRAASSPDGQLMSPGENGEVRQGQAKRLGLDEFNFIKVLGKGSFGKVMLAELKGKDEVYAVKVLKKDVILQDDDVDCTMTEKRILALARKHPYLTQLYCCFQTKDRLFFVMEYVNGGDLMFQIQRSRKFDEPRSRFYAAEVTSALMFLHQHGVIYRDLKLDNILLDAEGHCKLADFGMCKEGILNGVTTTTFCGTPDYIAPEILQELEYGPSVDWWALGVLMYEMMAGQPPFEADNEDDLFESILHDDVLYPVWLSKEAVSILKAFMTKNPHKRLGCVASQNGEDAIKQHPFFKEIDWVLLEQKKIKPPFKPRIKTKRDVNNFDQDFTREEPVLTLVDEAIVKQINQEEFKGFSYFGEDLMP

[3] = biological target: T4, PKC-ι (endogenous, human cell extracts) (human, UniProt P41743 2-596); test: Western-blot competition on cell extracts against the anti-PKC-ι primary antibody; band densitometry
T4 construct: also called PKC-iota
T4 sequence (looked up): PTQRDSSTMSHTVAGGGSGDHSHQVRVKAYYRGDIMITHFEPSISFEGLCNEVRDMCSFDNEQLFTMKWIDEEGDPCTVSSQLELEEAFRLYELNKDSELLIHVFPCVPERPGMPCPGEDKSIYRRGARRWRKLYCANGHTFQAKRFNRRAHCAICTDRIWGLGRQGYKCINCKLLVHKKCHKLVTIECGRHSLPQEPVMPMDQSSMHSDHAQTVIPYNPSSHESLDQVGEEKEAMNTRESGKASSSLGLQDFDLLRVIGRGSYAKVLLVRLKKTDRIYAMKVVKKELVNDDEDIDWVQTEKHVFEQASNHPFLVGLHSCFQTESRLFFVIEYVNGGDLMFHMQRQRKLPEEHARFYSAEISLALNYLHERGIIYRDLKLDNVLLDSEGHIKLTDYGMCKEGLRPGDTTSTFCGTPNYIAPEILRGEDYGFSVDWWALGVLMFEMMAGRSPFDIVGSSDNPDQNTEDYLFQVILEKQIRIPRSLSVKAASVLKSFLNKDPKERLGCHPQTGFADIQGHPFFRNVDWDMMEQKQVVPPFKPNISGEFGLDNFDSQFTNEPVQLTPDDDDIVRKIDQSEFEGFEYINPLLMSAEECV

[4] = biological target: T3, PKC-ε (endogenous, human cell extracts); test: Western-blot competition on cell extracts against the anti-PKC-ε primary antibody; band densitometry; remark: listed apart in the source
Procedure: Binding efficiency and specificity of the peptides PRE 2, 3, 4, 5, 6, 7, 8, 9, 10, 11, 12 and 13 (see Table 3) was also tested using cytoplasmic extracts from different cell lines expressing appropriate PKC isoforms as described for Example 1. Briefly, the protein cytoplasmic extracts were separated by electrophoresis and transferred onto nitrocellulose membranes by standard Western blotting procedures. The bands on the Western blots were detected with matching primary antibodies and alkaline phosphatase conjugated secondary antibody. The bands were then scanned and the relative density measurements obtained.
This procedure to assess the binding characteristics of the PREs is based on competition binding of the PRE with the primary anti-isoform PKC specific antibodies. The lower the measured band density, the greater the binding of the PRE to the PKC isoform. The PREs were added at 10 and 20 times (10×, 20×) the primary antibody concentration, according to classical competition between antigenic peptide and primary antibody. The following cell lines (obtained from the ATCC) were used: H661—NCI human lung carcinoma NSCLC; MDAMB231—human highly invasive breast cancer cell line from pleural effusion; LS180—human colon adenocarcinoma; LnCAP—human prostate adenocarcinoma; CCD16Lu—human lung fibroblasts; Du145—human prostate carcinoma brain metastasis, and T24—human bladder carcinoma.

binding result (PKC-ζ (purified isoform)): no binding (tested: 20X)
B1: PRE 4 (peptide)
peptide: Ac-KDAQNLIGISI-NH2
notes: Synthetic peptide; also called peptide PRE 4

B2: PRE 11 (peptide)
peptide: Ac-RDAQNLIGISI-NH2
notes: Synthetic peptide; also called peptide PRE 11
binding result [1]: no binding (tested: 20X the primary antibody concentration)

B3: PRE 12 (peptide)
peptide: Ac-KDAQNLI-NH2
notes: Synthetic peptide; also called peptide PRE 12; Ac-KDAQNLI-NH2
binding result [2]: no binding (tested: 20X the primary antibody concentration)
binding result [3]: no binding (tested: 20X the primary antibody concentration)

B4: PRE 13 (peptide)
peptide: Ac-RDAQNLI-NH2
notes: Synthetic peptide; also called peptide PRE 13; Ac-RDAQNLI-NH2
binding result [4]: no binding (tested: 20X the primary antibody concentration)

Reference: patent US20100041597A1 (published 2010)
